From article PMC3693442 (Science (New York, N.Y.), 2013) come the findings set out here.

This experiment has as its target KLC2^TPR (tetratricopeptide repeat domain of kinesin light chain 2), wild type (UniProt O88448 217-426). Briefly: fluorescence polarisation.

As for PSTDWEDGDL [SKIP^WE peptide (equivalent peptide centered on the WE motif of SKIP)], the Kd was greater than 110 µM. On to TNLEWDDSAI [SKIP^WD peptide (ten amino acid long peptide centered on the WD motif of SKIP)], for which the affinity, expressed as Kd, was 24 µM.
